Results published in patent US20210032305A1 (KINDRED BIOSCIENCES, published 2021).

T1: human EPOR on TF-1 cells (human, UniProt P19235 25-508)
T1 sequence (looked up): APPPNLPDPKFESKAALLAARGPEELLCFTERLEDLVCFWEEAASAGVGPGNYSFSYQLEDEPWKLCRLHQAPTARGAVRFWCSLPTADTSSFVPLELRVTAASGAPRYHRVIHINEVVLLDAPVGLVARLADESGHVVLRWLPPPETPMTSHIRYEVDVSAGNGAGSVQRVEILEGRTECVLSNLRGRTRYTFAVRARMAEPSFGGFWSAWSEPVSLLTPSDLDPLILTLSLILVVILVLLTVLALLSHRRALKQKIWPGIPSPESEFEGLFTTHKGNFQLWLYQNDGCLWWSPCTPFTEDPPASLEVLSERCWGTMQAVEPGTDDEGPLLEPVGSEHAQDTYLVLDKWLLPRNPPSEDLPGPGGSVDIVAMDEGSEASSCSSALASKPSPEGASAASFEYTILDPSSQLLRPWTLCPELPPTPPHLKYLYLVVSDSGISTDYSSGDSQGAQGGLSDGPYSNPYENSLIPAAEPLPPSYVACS

T2: human EPOR-Fc (Catalog No. 963-ER-050, R&D Systems) (human, UniProt P19235 25-250, biotinylated in Example 10 only)
T2 construct: extracellular domain; treated as one molecule; also called extracellular domain of human EPOR; human EPO receptor; not shown: Fc part of the bought EPOR-Fc
T2 sequence (looked up): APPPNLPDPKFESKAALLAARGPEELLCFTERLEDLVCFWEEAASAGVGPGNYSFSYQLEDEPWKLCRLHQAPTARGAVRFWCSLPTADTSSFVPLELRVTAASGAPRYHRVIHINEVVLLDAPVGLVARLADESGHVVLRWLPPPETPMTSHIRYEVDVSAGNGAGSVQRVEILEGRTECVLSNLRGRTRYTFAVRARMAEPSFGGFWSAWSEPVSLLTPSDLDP


Tests used:
human EPOR on TF-1 cells = biological target: T1, human EPOR on TF-1 cells; experiment: cell-based or functional assay
[1] = biological target: T2, human EPOR-Fc (Catalog No. 963-ER-050, …); experiment: biolayer interferometry (ForteBio); biotinylated human EPOR on streptavidin tips, EPO analog 20-0.25 nM, 1:1 fit
Excerpt: Dissociation was monitored for 600 seconds. A buffer only blank curve was subtracted to correct for any drift.

[2] = biological target: T3, Feline EPOR201_ECD_human Fc (feline EPOR fused to human Fc, biotinylated with EZ-Link NHS-LC-biotin); experiment: biolayer interferometry (ForteBio); biotinylated receptor-Fc on streptavidin tips, EPO analog 150-1.9 nM, 1:1 fit
T3 construct: also called fEPOR201_ECD-Fc; feline EPOR201-ECD-Fc
T3 sequence (chain, as listed by the source limits assumed): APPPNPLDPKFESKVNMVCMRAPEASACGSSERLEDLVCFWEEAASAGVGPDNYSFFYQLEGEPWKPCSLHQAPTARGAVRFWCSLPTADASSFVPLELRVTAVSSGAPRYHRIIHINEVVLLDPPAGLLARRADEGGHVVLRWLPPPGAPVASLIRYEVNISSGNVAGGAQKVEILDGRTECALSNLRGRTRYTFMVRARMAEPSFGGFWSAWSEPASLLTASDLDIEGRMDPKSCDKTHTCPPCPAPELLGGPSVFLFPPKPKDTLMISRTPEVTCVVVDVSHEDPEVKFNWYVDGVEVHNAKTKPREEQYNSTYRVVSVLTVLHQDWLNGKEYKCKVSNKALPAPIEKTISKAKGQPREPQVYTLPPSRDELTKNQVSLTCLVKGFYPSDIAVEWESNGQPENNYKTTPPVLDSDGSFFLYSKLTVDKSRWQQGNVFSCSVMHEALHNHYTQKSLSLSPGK
Description: (§1) The binding analysis was performed as follows. Briefly, fEPOR201_ECD-Fc and fEPOR202_ECD-Fc were biotinylated using EZ-Link NHS-LC-biotin (Catalog No. 21336, Thermo Scientific). The free unreacted biotin was removed by dialysis. Biotinylated fEPOR201_ECD-Fc and fEPOR202_ECD-Fc were captured on streptavidin sensor tips (Catalog No. 18-509, ForteBio).
(§2) Dissociation was monitored for 600 seconds. A buffer only blank curve was subtracted to correct for any drift. The data were fit to a 1:1 binding model using ForteBio™ data analysis software to determine the kₒₙ (association rate constant), koff (dissociation rate constant) and the Kd (dissociation constant). […] The buffer for dilutions and all binding steps was: 200 mM phosphate, 150 mM NaCl, 0.02% Tween-20, 0.05% sodium azide, and 0.1 mg BSA, pH7.4.

[3] = biological target: T4, Feline EPOR202_ECD_human Fc (feline EPOR fused to human Fc, biotinylated with EZ-Link NHS-LC-biotin); experiment: as above
T4 construct: also called fEPOR202_ECD-Fc; feline EPOR202-ECD-Fc
T4 sequence (chain, as listed by the source limits assumed): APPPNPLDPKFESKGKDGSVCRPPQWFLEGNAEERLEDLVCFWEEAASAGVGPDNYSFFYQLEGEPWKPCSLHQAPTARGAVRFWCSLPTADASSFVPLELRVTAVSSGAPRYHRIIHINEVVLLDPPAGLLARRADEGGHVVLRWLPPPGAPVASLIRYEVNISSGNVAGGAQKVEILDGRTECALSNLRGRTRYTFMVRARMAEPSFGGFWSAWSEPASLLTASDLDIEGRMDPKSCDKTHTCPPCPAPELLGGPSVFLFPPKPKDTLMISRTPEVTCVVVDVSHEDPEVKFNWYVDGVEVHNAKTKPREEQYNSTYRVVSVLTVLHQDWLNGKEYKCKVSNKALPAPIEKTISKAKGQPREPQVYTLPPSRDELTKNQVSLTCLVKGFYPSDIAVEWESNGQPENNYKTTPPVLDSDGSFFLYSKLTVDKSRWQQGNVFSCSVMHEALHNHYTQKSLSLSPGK
Description: as §1, §2

[4] = biological target: T2, human EPOR-Fc (Catalog No. 963-ER-050, …); experiment: ELISA 2: as ELISA 1, EPO sample treated with neuraminidase first
Description: (§3) A 96-well plate was coated with a mouse anti-EPO specific antibody (Catalog No. MAB287, clone 9C21D11, R&D Systems) to capture the EPO polypeptides. The EPO-bound wells were incubated with human EPOR-Fc at a concentration of 200 ng/mL and the bound EPOR was detected by anti-human Fc HRP conjugated antibody. The ELISA was performed a second time, but the three samples of EPO polypeptides were first treated with neuraminidase to remove the sialic acid.

[5] = biological target: T2, human EPOR-Fc (Catalog No. 963-ER-050, …); experiment: ELISA 1: EPO analog captured by mouse anti-EPO antibody (MAB287), human EPOR-Fc at 200 ng/mL, anti-human Fc HRP
Description: as §3

[6] = biological target: T5, Feline EPOR203_39A_ECD_Fc (feline EPOR fused to human Fc); experiment: sandwich ELISA: plate coated with anti-human EPO antibody, Analog 6-30 EV Mature captured in 2-fold dilutions from 500 ng/mL, feline EPOR203_39A_ECD_Fc added at 200 ng/mL, detected with anti-human Fc HRP; 4-parameter fit. The axis 'Conc' prints no unit; ng/mL is from paragraph 333
T5 construct: also called feline EPOR203-ECD-Fc; fEPOR203_ECD-Fc
T5 sequence (chain, as listed by the source limits assumed): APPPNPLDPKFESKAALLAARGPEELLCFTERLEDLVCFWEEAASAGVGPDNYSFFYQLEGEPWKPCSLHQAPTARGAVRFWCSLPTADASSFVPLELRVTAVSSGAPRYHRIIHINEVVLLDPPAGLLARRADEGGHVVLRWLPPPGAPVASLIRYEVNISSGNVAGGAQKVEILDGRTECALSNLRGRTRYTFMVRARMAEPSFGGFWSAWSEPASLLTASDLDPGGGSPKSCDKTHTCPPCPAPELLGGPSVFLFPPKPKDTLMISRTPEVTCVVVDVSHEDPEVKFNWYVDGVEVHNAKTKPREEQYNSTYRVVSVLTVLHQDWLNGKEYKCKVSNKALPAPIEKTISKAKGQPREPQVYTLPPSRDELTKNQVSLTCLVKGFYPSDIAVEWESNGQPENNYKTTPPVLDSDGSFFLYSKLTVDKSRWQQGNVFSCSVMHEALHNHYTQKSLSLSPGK
Description: Feline EPOR203_39A_ECD_Fc (200 ng/mL in 1% BSA-PBST buffer) was added to each well and binding allowed to proceed for 1 hour at room temperature. A rabbit anti-human Fc antibody and horseradish peroxidase (HRP) conjugate (0.2 μg/mL) was used for detection and left in the wells for 1 hour at room temperature. 3,3,5,5′-Tetramethylbenzidine (TMB) was applied to the wells as the HRP substrate and kept in the well for 5 to 7 minutes for signal development.

Row | EC50, TF-1 cell proliferation (MTT) (human EPOR on TF-1 cells) | EC50 [4] [µg/mL] | EC50 [5] [µg/mL] | Binder | other results
1 | 0.3 IU/mL | – | – | Feline EPO Analog 6-30 G18V87 mature form (Analog 6-30 GV Mature) (ligand, N-linked glycosylated and sialylated (CHO DG-44 expressed); fraction not specified in this assay, also called feline EPO Analog 6-30 GV Mature) APPRLICDSRVLERYILGAREAENVTMGCNETCSFSENITVPDTKVNFYTWKRMDVGQQAVEVWQGLALLSEAILRGQALLANSSQVNETLQLHVDKAVSSLRSLTSLLRALGAQKEATSLPEATSAAPLRTFTVDTLCKLFRIYSNFLRGKLTLYTGEACRRGDR | Kd [1]: 0.0976 nM; Kd [2]: 0.4 nM; Kd [3]: 0.17 nM
2 | – | 0.018 | 0.1 | Analog 6-30 GV Mature (acidic fraction) (ligand, N-linked glycosylated; high sialylation, isoelectric point range of about 2 to about 3.5, Same polypeptide as m1; glycoform fraction; In ELISA 2 it was treated with neuraminidase first; also called acidic (high sialylation) fraction of Analog 6-30 GV Mature) APPRLICDSRVLERYILGAREAENVTMGCNETCSFSENITVPDTKVNFYTWKRMDVGQQAVEVWQGLALLSEAILRGQALLANSSQVNETLQLHVDKAVSSLRSLTSLLRALGAQKEATSLPEATSAAPLRTFTVDTLCKLFRIYSNFLRGKLTLYTGEACRRGDR | –
3 | – | 0.031 | 0.035 | Analog 6-30 GV Mature (basic fraction) (ligand, N-linked glycosylated; low sialylation, isoelectric point range of about 4 to about 5 (Example 15), about 3.5 to about 5 (Example 6), Same polypeptide as m1; glycoform fraction; In ELISA 2 it was treated with neuraminidase first; also called basic (low sialylation) fraction of Analog 6-30 GV Mature) APPRLICDSRVLERYILGAREAENVTMGCNETCSFSENITVPDTKVNFYTWKRMDVGQQAVEVWQGLALLSEAILRGQALLANSSQVNETLQLHVDKAVSSLRSLTSLLRALGAQKEATSLPEATSAAPLRTFTVDTLCKLFRIYSNFLRGKLTLYTGEACRRGDR | –
4 | 4.78 ng/mL | – | – | Feline EPO Analog 6-30 E18V87 mature form (Analog 6-30 EV Mature) (ligand, N-linked glycosylated and sialylated (CHO DG-44 expressed); fraction not specified in this assay, also called Feline Analog 6-30 EV Mature; Sample 1) APPRLICDSRVLERYILEAREAENVTMGCNETCSFSENITVPDTKVNFYTWKRMDVGQQAVEVWQGLALLSEAILRGQALLANSSQVNETLQLHVDKAVSSLRSLTSLLRALGAQKEATSLPEATSAAPLRTFTVDTLCKLFRIYSNFLRGKLTLYTGEACRRGDR | EC50 [6]: 0.088 µg/mL
5 | – | 0.02 | 0.045 | Analog 6-30 EV Mature (acidic fraction) (ligand, N-linked glycosylated; high sialylation (acidic fraction), Same polypeptide as m4; glycoform fraction; In ELISA 2 it was treated with neuraminidase first; also called acidic (high sialylation) fraction of Analog 6-30 EV Mature) APPRLICDSRVLERYILEAREAENVTMGCNETCSFSENITVPDTKVNFYTWKRMDVGQQAVEVWQGLALLSEAILRGQALLANSSQVNETLQLHVDKAVSSLRSLTSLLRALGAQKEATSLPEATSAAPLRTFTVDTLCKLFRIYSNFLRGKLTLYTGEACRRGDR | –
